Legend:
[1] = target: GST-His/GST-Ede1 heterodimer of the functionally monomeric mixture (not stated | yeast) (UniProt P34216); test: SPR
[2] = target: GST-Ede1 UBA (yeast) (UniProt P34216); test: SPR
[3] = target: fluorescein-labeled hHR23A-UBA1 (human); test: fluorescence polarisation
[4] = target: Ede1_rhodamine (yeast) (UniProt P34216); test: fluorescence polarisation
[5] = target: Ddi1 UBA, fluorescent free domain (yeast) (UniProt P40087); test: fluorescence polarisation
[6] = target: Dsk2 UBA, fluorescent free domain (yeast) (UniProt P48510); test: fluorescence polarisation
[7] = target: GST-hHR23A UBA1 (human); test: SPR
[8] = target: GST-DRM2 UBA1 (Arabidopsis); test: SPR

Sequence of Ede1_rhodamine (yeast) (P34216 1338-1380): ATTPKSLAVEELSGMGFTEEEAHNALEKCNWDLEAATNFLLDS
Sequence of GST-Ede1 UBA (yeast) (P34216 1338-1380): as above
Sequence of Ddi1 UBA, fluorescent free domain (yeast) (P40087 389-428): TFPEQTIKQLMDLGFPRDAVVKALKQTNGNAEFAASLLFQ
Sequence of Dsk2 UBA, fluorescent free domain (yeast) (P48510 327-371): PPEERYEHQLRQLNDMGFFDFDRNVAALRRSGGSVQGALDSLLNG

Row | Kd [1] [µM] | Kd [2] [µM] | Kd [3] [µM] | Kd [4] [µM] | Kd [5] [µM] | Kd [6] [µM] | Kd [7] [µM] | Kd [8] [µM] | Substance
1 | 44 | 25 | 9 | 31 | 50 | 1.4 |  |  | K48-linked tetraubiquitin (from UniProt P0CG48 1-76)
2 | 23 | 6 | 30 | 54 | 92 | 2.2 | 4.7 |  | K63-linked tetraubiquitin (from UniProt P0CG48 1-76)
3 |  | 48 |  | 120 |  |  | 26 | 89 | K63-linked diubiquitin (from UniProt P0CG48 1-76)
4 |  | 110 |  | 86 |  |  | 36 | 140 | K48-linked diubiquitin (from UniProt P0CG48 1-76)
